B1: Flt1(1-3)-Fc (Fc fusion, human, UniProt P17948 27-331, looked up, not shown: a dimerising Fc or GST)
chain: SKLKDPELSLKGTQHIMQAGQTLHLQCRGEAAHKWSLPEMVSKESERLSITKSACGRNGKQFCSTLTLNTAQANHTGFYSCKYLAVPTSKKKETESAIYIFISDTGRPFVEMYSEIPEIIHMTEGRELVIPCRVTSPNITVTLKKFPLDTLIPDGKRIIWDSRKGFIISNATYKEIGLLTCEATVNGHLYKTNYLTHRQTNTIIDVQISTPRPVKLLRGHTLVLNCTATTPLNTRVQMTWSYPDEKNKRASVRRRIDQSNSHANIFYSVLTIDKMQNKDKGLYTCRVRSGPSFKSVNTSVHIYDK
B2: Flt1D2.VEGFR3D3.Fc?C1(a) (Fc fusion, not shown: a dimerising Fc or GST)
chain: GRPFVEMYSEIPEIIHMTEGRELVIPCRVTSPNITVTLKKFPLDTLIPDGKRIIWDSRKGFIISNATYKEIGLLTCEATVNGHLYKTNYLTHRQTNTIIDIQLLPRKSLELLVGEKLVLNCTVWAEFNSGVTFDWDYPGKQAERGKWVPERRSQQTHTELSSILTIHNVSQHDLGSYVCKANNGIQRFRESTEVIVHENGPG
B3: Flt1D2.Flk1D3.Fc?C1(a) (Fc fusion, human)
chain: GRPFVEMYSEIPEIIHMTEGRELVIPCRVTSPNITVTLKKFPLDTLIPDGKRIIWDSRKGFIISNATYKEIGLLTCEATVNGHLYKTNYLTHRQTNTIIDVVLSPSHGIELSVGEKLVLNCTARTELNVGIDFNWEYPSSKHQHKKLVNRDLKTQSGSEMKKFLSTLTIDGVTRSDQGLYTCAASSGLMTKKNSTFVRVHEKGPG
modifications: N-linked glycosylation: complete at Asn33, Asn193, Asn282; partial at Asn65 and Asn120 (peptide mapping numbering)
notes: domain: Ig domain 2;domain: Ig domain 3; Made in CHO cells, transiently or stably; also called R1R2; not shown: Fc?C1(a) portion

Experiments:
human VEGF165 [1] = target: T1, human VEGF165 (human, UniProt P15692-4 27-191); assay: cell-based or functional assay
T1 sequence (P15692 other isoform, or with tags, fused parts or gaps limits assumed): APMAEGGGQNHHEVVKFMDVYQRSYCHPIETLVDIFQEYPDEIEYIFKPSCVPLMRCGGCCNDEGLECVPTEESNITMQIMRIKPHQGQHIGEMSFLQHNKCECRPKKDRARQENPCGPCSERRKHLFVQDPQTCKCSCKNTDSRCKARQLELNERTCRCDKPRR

human VEGF165 [2] = target: T1, human VEGF165; assay: size exclusion chromatography with on-line light scattering
Method: (a) Size Exclusion Chromatography (SEC) with On-Line Light Scattering. Size exclusion chromatography column with a MiniDawn on-line light scattering detector (Wyatt Technology, Santa Barbara, Calif.) and refractive index (R1) detectors (Shimadzu, Kyoto, Japan) was used to determine the molecular weight (MW) of the receptor-ligand complex. Samples were injected onto a Superose 12 HR 10/30 column (Pharmacia) equilibrated in PBS buffer and eluted with the same buffer at flow rate 0.5 ml/min. at room temperature. […] MW was calculated from LS and R1 signals. The same procedure was used to determine MW of the individual components of the receptor-ligand complex.

human VEGF165 [3] = target: T1, human VEGF165; assay: size exclusion chromatography under dissociative conditions (6M GuHCl), standard curves
Method: (a) Size Exclusion Chromatography (SEC) under native conditions. […] The sample was eluted with the same buffer at flow rate 40 μl/min. at room temperature. […] Fractions eluted between 1.1 and 1.2 ml were combined and guanidinium hydrochloride (GuHCl) was added to a final concentration 4.5M to dissociate the complex.
(b) Size Exclusion Chromatography (SEC) under dissociative conditions. To separate the components of the receptor-ligand complex and to determine their molar ratio, 50 μl of dissociated complex as described supra was loaded onto a Superose 12 PC 3.2/30 equilibrated in 6M GuHCl and eluted with the same solution at a flow rate 40 μl/min. at room temperature.
The stoichiometry of the receptor-ligand complex was determined from the peak area or the peak height of the components. […] To obtain a standard curve, four different concentrations (0.04 mg/ml−0.3 mg/ml) of either component were injected onto a Pharmacia Superose 12 PC 3.2/30 column equilibrated in 6M guanidinium chloride and eluted with the same solution at flow rate 40 μl/min. at room temperature. The standard curve was obtained by plotting peak area or peak height vs protein concentration.

human VEGF165 [4] = target: T1, human VEGF165; assay: size exclusion chromatography (Superose 6), complex purified, dissociated in 6M guanidine hydrochloride, components quantified
Method: (b) Size Exclusion Chromatography. […] The receptor-ligand complex was then incubated in a buffer containing 6M guanidine hydrochloride in order to dissociate it into its component proteins.

Row | Binder | half maximal dose, VEGF165-induced cell proliferation (MG87 cells, MTS) (human VEGF165 [1]) | stoichiometry of the complex (human VEGF165 [2]) | molar ratio of VEGF165:receptor (from the peak area) (human VEGF165 [3]) | molar ratio of VEGF165:receptor (from the peak height) (human VEGF165 [3]) | ratio of VEGF165 to receptor in the complex (human VEGF165 [4])
1 | B1 | 2 nM | – | – | – | –
2 | B2 | 2 nM | – | – | – | –
3 | B3 | 0.8 nM | 1 receptor:VEGF165 | 1.16 mol/mol | 1.1 mol/mol | 1 VEGF165:receptor
